From article PMC7709125, “Bringing the Heavy Chain to Light: Creating a Symmetric, Bivalent IgG-Like Bispecific” (Antibodies, 2020) come the findings set out here.

For the assay, the target named is T1, 5FV2 soluble VH domain targeting human VEGF (human).
T1 construct: also called anti-hVEGF VH domain; phage-derived VH domain 5FV2
Kind of assay: SPR. The conditions noted are these: both partners purified.

T1 sequence (heavy, as listed by the source): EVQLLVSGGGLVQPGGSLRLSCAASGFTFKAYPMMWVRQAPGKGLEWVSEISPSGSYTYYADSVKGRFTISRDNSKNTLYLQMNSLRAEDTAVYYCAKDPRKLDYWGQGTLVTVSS

B1: human vascular endothelial growth factor (VEGF) (ligand, UniProt P15692 1-395, looked up)
chain: APMAEGGGQNHHEVVKFMDVYQRSYCHPIETLVDIFQEYPDEIEYIFKPSCVPLMRCGGCCNDEGLECVPTEESNITMQIMRIKPHQGQHIGEMSFLQHNKCECRPKKDRARQENPCGPCSERRKHLFVQDPQTCKCSCKNTDSRCKARQLELNERTCRCDKPRR
notes: also called hVEGF; human VEGF; source: commercially available antigen
The molecule B1 yielded a Kd of 3 nM and a kon of 730000 M⁻¹ s⁻¹.

For orientation: Kd means a measure of binding affinity in units of concentration. The low end stands for higher affinity, the high end for lower affinity. A word on the kon: it is the second-order rate constant of association. Read a low kon as slower complex formation.
